Measurements published in paper PMC8458281, “Computational modeling and experimental validation of the EPI-X4/CXCR4 complex allows rational design of small peptide antagonists” (Communications Biology, 2021).

Experiments:
CXCR4 V112A + L41A = experiment: 12G5 antibody competition, 293T cells transfected with CXCR4 V112A + L41A; assay type: binding, human; conditions: IC50 on CXCR4 V112A + L41A relative to wt
Procedure: Fig. 4 The interactions of EPI-X4 and the EPI-X4 derivatives WSC02 and JM#21 with point-mutated CXCR4 were assessed by an antibody competition assay. Amino acid substitutions were introduced in the sequence of CXCR4 by site-directed mutagenesis, cloned into an IRES-eGFP expression vector, and transfected into 293 T cells. Afterward, cells were incubated with serially diluted EPI-X4 (a, b), WSC02 (c, d), or JM#21 (e, f) in presence of a constant concentration of CXCR4 specific antibody (clone 12G5). After 2 h, bound antibody was analyzed by flow cytometry. a, c, e) Representative dose-dependent replacement of 12G5 antibody by peptides. b, d, f) IC50 values were calculated by nonlinear regression. Shown are data derived from at least three individual experiments ± SEM. IC50 values were set to 1000 µM (EPI-X4 and WSC02) or 100 µM (JM#21) if the value exceeds the maximally used concentration. *p ≤ 0.05, ***p ≤ 0.001 (one-way ANOVA for comparison with wt). For IC50 values see Table 1. For all binding curves see also Fig. S8.
Mutated CXCR4 constructs were transfected into 293 T cells that have a very low endogenous expression level of wild-type CXCR4. Transfected cells were then analyzed for CXCR4 surface expression (Fig. S5a) and EPI-X4 binding using a flow cytometry-based antibody competition assay (Fig. S5b, c)[33]. […]

CXCR4 D97T = target: T1, CXCR4 D97T (human, UniProt P61073-1 1-352, D97T); experiment: flow cytometry on cells; 12G5 antibody competition on 293T cells transiently transfected with CXCR4 wt or mutants (IRES-eGFP vector), eGFP-positive cells gated; serially diluted peptide with a constant concentration of CXCR4 antibody clone 12G5, 2 h; bound antibody read; IC50 by nonlinear regression; conditions: one partner purified
T1 construct: human CXCR4, isoform 1 or b; source: 293T cells, transiently transfected (pcDNA3.1 CXCR4-IRES-eGFP), on cells

CXCR4 D97E + V112L = target: T2, CXCR4 D97E + V112L (human, UniProt P61073-1 1-352, D97E | V112L); experiment: as above; conditions: one partner purified
T2 construct: human CXCR4, isoform 1 or b; also called D97E plus V112L; source: 293T cells, transiently transfected (pcDNA3.1 CXCR4-IRES-eGFP), on cells

CXCR4 V112L = target: T3, CXCR4 V112L (human, UniProt P61073-1 1-352, V112L); experiment: as above; conditions: one partner purified
T3 construct: human CXCR4, isoform 1 or b; source: 293T cells, transiently transfected (pcDNA3.1 CXCR4-IRES-eGFP), on cells

CXCR4 D97E = target: T4, CXCR4 D97E (human, UniProt P61073-1 1-352, D97E); experiment: as above; conditions: one partner purified
T4 construct: human CXCR4, isoform 1 or b; source: 293T cells, transiently transfected (pcDNA3.1 CXCR4-IRES-eGFP), on cells

CXCR4 D187E = target: T5, CXCR4 D187E (human, UniProt P61073-1 1-352, D187E); experiment: as above; conditions: one partner purified
T5 construct: human CXCR4, isoform 1 or b; source: 293T cells, transiently transfected (pcDNA3.1 CXCR4-IRES-eGFP), on cells
T5 sequence (P61073 whole entry D187E, canonical isoform): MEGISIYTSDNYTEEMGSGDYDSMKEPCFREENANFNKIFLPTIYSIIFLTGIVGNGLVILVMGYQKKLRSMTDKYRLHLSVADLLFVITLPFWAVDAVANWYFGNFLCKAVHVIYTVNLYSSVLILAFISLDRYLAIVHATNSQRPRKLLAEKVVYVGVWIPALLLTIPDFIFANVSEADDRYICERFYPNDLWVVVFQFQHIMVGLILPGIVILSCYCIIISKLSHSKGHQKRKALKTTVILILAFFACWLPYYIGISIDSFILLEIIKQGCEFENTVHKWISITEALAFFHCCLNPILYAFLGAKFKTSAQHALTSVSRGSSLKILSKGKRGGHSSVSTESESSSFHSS

T3 sequence (P61073 whole entry V112L, canonical isoform): as the sequence (P61073 whole entry D187E, canonical isoform) above, with V112L, E187D counted along it
T2 sequence (P61073 whole entry D97E/V112L, canonical isoform): as the sequence (P61073 whole entry D187E, canonical isoform) above, with D97E, V112L, E187D counted along it
T1 sequence (P61073 whole entry D97T, canonical isoform): as the sequence (P61073 whole entry D187E, canonical isoform) above, with D97T, E187D counted along it
T4 sequence (P61073 whole entry D97E, canonical isoform): as the sequence (P61073 whole entry D187E, canonical isoform) above, with D97E, E187D counted along it

“IVRWSKKVPCVS [WSC02, first-generation C-terminally truncated 12-mer derivative of EPI-X4 with four substitutions]” was tested, and the Fold change (CXCR4 V112A + L41A) was 4.

B1: EPI-X4 (Alb408-423) (peptide)
peptide: LVRYTKKVPQVSTPTL
notes: source: synthetic peptide (Fmoc solid-phase synthesis, HPLC-purified)
With B1 the IC50 (CXCR4 D97T) was > 1000 µM, the IC50 (CXCR4 D97E + V112L) was 223 µM and the IC50 (CXCR4 V112L) was 41.1 µM. The IC50 (CXCR4 D97E) was 129 µM and the IC50 (CXCR4 D187E) was 8.52 µM.
